One data set relates to OaAEP1. Briefly: Self-activation (acid-induced self-cleavage) of OaAEP1 and mutants, SDS PAGE. The format is biochemical, Oldenlandia affinis. The note with it: acidic pH. As to the method:
To self-activate OaAEP1, 1 mM EDTA and 0.5 mM Tris (2-carboxyethyl) phosphine hydrochloride were added to the immature protein and the pH of the solution was adjusted to 4 with glacial acetic acid. Fractions containing the protein (as analyzed by SDS-PAGE) were pooled and then incubated for 3 to 16 hours at room temperature or 37° C. Protein precipitation at this pH allowed removal of the bulk of the contaminating proteins by centrifugation. Activated proteins were concentrated by ultracentrifugation using a 50 kDa cutoff concentrator (Sartorius) and stored at −80° C.
OaAEP1 was cloned and expressed in E. coli as an ubiquitin fusion protein as reported earlier (FIG. 2) (Harris, K. S., et al., Nat Commun, 2015. 6: p. 10199). Using ion exchange and size exclusion chromatography (SEC), sufficient amounts of pure protein suitable for enzymatic and structural analysis were obtained (FIG. 2B). At the neutral pH of purification (pH=7.4), OaAEP1 was mainly present as a heterodimer, where both monomers are in their zymogenic form, but only one monomer had retained in addition the ubiquitin and N-terminal His-tag, while the fusion moiety was cleaved in the other monomer (labeled as “His-Ub-AEP-FL” and “AEP-FL” in FIG. 2B and FIG. 2C). This heterodimer was subjected to crystallization trials for structural studies (see below). In agreement with reference (Harris, K. S., et al., Nat Commun, 2015. 6: p. 10199), activation of OaAEP1 was optimum for pH values in the range of 3.4-4.0 (FIG. 2D). Following activation, OaAEP1 converts to a monomer in solution according to SEC analysis (“AEP-holo” in FIG. 2C). To test the ability of the protein to be activated in trans, the catalytic residue Cys217 was mutated into Ser217.
Since the crystallization conditions are compatible with OaAEP1 activation, the present crystal structure is likely to have captured one of the conformational states occurring along the activation pathway. To determine whether Gln347 belongs to the segment recognized and cleaved during self-activation, mutagenesis experiments targeting region 346-351 of the OaAEP1 protein were performed (FIG. 4C). The role of Gln347 in OaAEP1 auto-activation was particularly assessed by mutating this residue to Ala, and whether enzyme activation was abolished was examined. Only little impact was found on the mutant enzyme activation (FIG. 4C). Residues Asn346, Asp349 and Asp351 that are next to Gln347 were then targeted. […] Thus, trans-activation requires the presence of at least one of the four Asx/Gln residues (with a slight preference for Asp349 or Asp351) found in this segment of the linker.

Another data set relates to peptide substrate. Description: Comparison of cyclization efficiency of gate-keeper Cys247 mutants (MALDI-TOF MS). It counts as biochemical. As to the method:
Native and modified amino acids were purchased from Sigma-Aldrich (USA). All peptides used in this manuscript were synthesized in-house using the solid-phase method and HPLC purified. Cyclization assays were performed in 50-μl reaction mixtures containing 20 mM phosphate buffer, ligases (5 to 700 nM) and peptide substrates (10 to 300 μM). Each reaction was performed in triplicate at 37° C. and quenched by adding 5 μl of 1 M HCl solution. The peptides were separated by using a reversed-phase C18 analytical column (150×2.1 mm, Vydac) with a linear gradient from 10% to 50% acetonitrile over 15 min on a Nexera UHPLC system (Shimadzu). For kinetic analysis, the concentrations of WT OaAEP1, mutant OaAEP1, and butelase 1 were fixed at 700 nM, 50 nM, and 20 nM, respectively. The cyclization velocities were calculated by converting the HPLC-peak areas of remained linear precursors or the cyclized products into concentrations. The identity of each HPLC peak was analyzed by MALDI-TOF MS (ABI 4800 MALDI TOF/TOF). The velocities were input into GraphPad Prism (GraphPad Software, San Diego) to obtain the Michaelis-Menten curve and the kinetic parameters (kcat and Km). Comparison for the cyclization efficiency of various OaAEP1 mutants were performed in a volume of 20 μl of the reaction mixture and analyzed by MALDI-TOF MS after 10 mins or 1 hour ligation reaction.
The pre-ligation conformation of OaAEP1 captured in the present structure was then analyzed to identify several key features that could differentiate an AEP protease from an AEP-like ligase. […] In contrast to AEP proteases, the surface of OaAEP1 facing the catalytic Cys217 appears to be more widely open. Three cysteine residues (Cys247, Cys250, Cys264) are aligned along a shallow cleft at the surface of the enzyme (FIGS. 3C and 3E). Unlike the surface of AEP proteases that contains several bulges, both butelase 1 (using a homology model based on OaAEP1b) and OaAEP1 have residues with smaller side-chains along this patch. A disulfide bond is formed between Cys250 and Cys264, which are conserved in AEP-like ligases butelase 1 and OaAEP1b. This covalent bond is likely to stabilize the local structure and provide an adequate surface allowing the approach of an N-terminal amine incoming group. Conversely, the corresponding surface patch of AEP proteases (PDB: 4AWA) is lined with residues having bulky side-chains like Tyr (FIG. 3E) blocking this channel. It was therefore hypothesized that residue Cys247 which is located at the extremity of the substrate channel is likely to function as a final nucleophile filter (or “gate-keeper”), allowing attack from the N-terminal amine to complete the ligation reaction. […]

Data set [1] can be described thus: Proteolytic and protein ligation activity of AEP_C13C04. It counts as biochemical. The source says:
Based on the prediction of the sequence alignment, AEP_C13C04 contained the conserved structural motif identical to Quicklase (247-264). […] The cDNA of AEP_C13C04 was then subsequently synthesized and subcloned into pet28b in a similar way as Quicklase.

Where two headings read alike, the source gives them in different places.

B1: Asn346Ala-Gln347Ala (protein)
chain: MVRYLAGAVLLLVVLSVAAAVSGARDGDYLHLPSEVSRFFRPQETNDDHGEDSVGTRWAVLIAGSKGYANYRHQAGVCHAYQILKRGGLKDENIVVFMYDDIAYNESNPRPGVIINSPHGSDVYAGVPKDYTGEEVNAKNFLAAILGNKSAITGGSGKVVDSGPNDHIFIYYTDHGAAGVIGMPSKPYLYADELNDALKKKHASGTYKSLVFYLEACESGSMFEGILPEDLNIYALTSTNTTESSWCYYCPAQENPPPPEYNVCLGDLFSVAWLEDSDVQNSWYETLNQQYHHVDKRISHASHATQYGNLKLGEEGLFVYMGSNPANDNYTSLDGNALTPSSIVVAARDADLLHLWEKFRKAPEGSARKEEAQTQIFKAMSHRVHIDSSIKLIGKLLFGIEKCTEILNAVRPAGQPLVDDWACLRSLVGTFETHCGSLSEYGMRHTRTIANICNAGISEEQMAEAASQACASIP
In the case of B1, the “self-activation (auto-activation)” value in the data set on OaAEP1 is “can still be activated”.

B2: Asn346Ala-Asp349Ala-Asp351Ala (protein)
chain: MVRYLAGAVLLLVVLSVAAAVSGARDGDYLHLPSEVSRFFRPQETNDDHGEDSVGTRWAVLIAGSKGYANYRHQAGVCHAYQILKRGGLKDENIVVFMYDDIAYNESNPRPGVIINSPHGSDVYAGVPKDYTGEEVNAKNFLAAILGNKSAITGGSGKVVDSGPNDHIFIYYTDHGAAGVIGMPSKPYLYADELNDALKKKHASGTYKSLVFYLEACESGSMFEGILPEDLNIYALTSTNTTESSWCYYCPAQENPPPPEYNVCLGDLFSVAWLEDSDVQNSWYETLNQQYHHVDKRISHASHATQYGNLKLGEEGLFVYMGSNPANDNYTSLDGNALTPSSIVVAQRAAALLHLWEKFRKAPEGSARKEEAQTQIFKAMSHRVHIDSSIKLIGKLLFGIEKCTEILNAVRPAGQPLVDDWACLRSLVGTFETHCGSLSEYGMRHTRTIANICNAGISEEQMAEAASQACASIP
With B2, the “self-activation (auto-activation)” value in the data set on OaAEP1 is listed as “can still be activated”; in the data set on OaAEP1 (listed as A3), “more severe loss of function phenotype”.

B3: Asp349Ala-Asp351Ala (protein)
chain: MVRYLAGAVLLLVVLSVAAAVSGARDGDYLHLPSEVSRFFRPQETNDDHGEDSVGTRWAVLIAGSKGYANYRHQAGVCHAYQILKRGGLKDENIVVFMYDDIAYNESNPRPGVIINSPHGSDVYAGVPKDYTGEEVNAKNFLAAILGNKSAITGGSGKVVDSGPNDHIFIYYTDHGAAGVIGMPSKPYLYADELNDALKKKHASGTYKSLVFYLEACESGSMFEGILPEDLNIYALTSTNTTESSWCYYCPAQENPPPPEYNVCLGDLFSVAWLEDSDVQNSWYETLNQQYHHVDKRISHASHATQYGNLKLGEEGLFVYMGSNPANDNYTSLDGNALTPSSIVVNQRAAALLHLWEKFRKAPEGSARKEEAQTQIFKAMSHRVHIDSSIKLIGKLLFGIEKCTEILNAVRPAGQPLVDDWACLRSLVGTFETHCGSLSEYGMRHTRTIANICNAGISEEQMAEAASQACASIP
For B3, the “self-activation (auto-activation)” value in the data set on OaAEP1 is recorded as “can still be activated”.

B4: Cys247Gly: OaAEP1 gate-keeper mutant Cys247 to Gly (protein)
chain: MVRYLAGAVLLLVVLSVAAAVSGARDGDYLHLPSEVSRFFRPQETNDDHGEDSVGTRWAVLIAGSKGYANYRHQAGVCHAYQILKRGGLKDENIVVFMYDDIAYNESNPRPGVIINSPHGSDVYAGVPKDYTGEEVNAKNFLAAILGNKSAITGGSGKVVDSGPNDHIFIYYTDHGAAGVIGMPSKPYLYADELNDALKKKHASGTYKSLVFYLEACESGSMFEGILPEDLNIYALTSTNTTESSWGYYCPAQENPPPPEYNVCLGDLFSVAWLEDSDVQNSWYETLNQQYHHVDKRISHASHATQYGNLKLGEEGLFVYMGSNPANDNYTSLDGNALTPSSIVVNQRDADLLHLWEKFRKAPEGSARKEEAQTQIFKAMSHRVHIDSSIKLIGKLLFGIEKCTEILNAVRPAGQPLVDDWACLRSLVGTFETHCGSLSEYGMRHTRTIANICNAGISEEQMAEAASQACASIP
Take B4: the “alternative reaction when N-terminal amine is not available” value in the data set with peptide substrate (N-terminal amine group acetylated) is recorded as “catalyzes peptide hydrolysis as alternative reaction”. Besides, in the data set on peptide substrate (gate-keeper position 247 mutants), the “ligase activity compared to WT OaAEP1” value is reported as “negatively affects the ligase activity”.

B5: AEP_C13C04: Peptidase C13, legumain [OMO86616.1] from Corchorus olitorius, SEQ ID NO:8 (protein, listed as Corchorus olitorius)
chain: MTRLVAGVILLLLSVTGIASAGRDATGDVLRLPSEASRFFRPSDDDEVGTRWAVLIAGSNGYWNYRHQADVCHAYQLLKKGGLKDENIIVFMYDDIAFNYENPRQGIIINSPHGDDVYQDVPKDYTGEEVTVHNFLAAILGNKTAIKGGSGKVVDSGPNDHIFIYYTDHGGPGVLGMPTYPYLYADELIDTLKKKHASGTYKSLVFYLEACESGSIFEGLLPEGLNIYATTASNADESSWGTYCPGEYPSPPPEYETCLGDLYSVAWMEDSDLHNLRTETLHQQYELVKRRTLNGNSAYGSHVMQYGDVGLAKEHLFLYLGTNPANDNFTFIDENSLQPPAKAVNQRDADLVHFWDKYRKAPDGSVRKVEAQKQVVEAMSHRMHVDNSIQLIGKLLFGIERGADVLKTVRPAGQPLVDDWKCLKSMVRTFETHCGSLAQYGMKHMRSIANICNAGIQTEQMAEASSQACVSIPSGQWSSIQKGFSA
As for B5, in data set [1], the byproducts result was “significant byproducts of proteolytic reactions”; the “proteolytic and protein ligation activities” value was “exhibited both proteolytic and protein ligation activities”. Further, the “proteolytic and protein ligation activities” value in data set [1] (listed as AEP_C13CO4) is “is a peptide ligase having the activity of OaAEP1 Cys247Ala”. Besides, the “enzymatic catalytic efficiency compared with Quicklase” value in data set [1] (wild type AEP_C13C04) is reported as “much slower”.

The record behind these values is patent US11795488B2, “Methods for enzymatic peptide ligation” (NANYANG TECHNOLOGICAL UNIVERSITY, priority 2016, dated 2023).
